Results from PMC10445657.

Molecular target: T1, RORα S100D (human, UniProt P35398 1-523, S100D)
T1 sequence: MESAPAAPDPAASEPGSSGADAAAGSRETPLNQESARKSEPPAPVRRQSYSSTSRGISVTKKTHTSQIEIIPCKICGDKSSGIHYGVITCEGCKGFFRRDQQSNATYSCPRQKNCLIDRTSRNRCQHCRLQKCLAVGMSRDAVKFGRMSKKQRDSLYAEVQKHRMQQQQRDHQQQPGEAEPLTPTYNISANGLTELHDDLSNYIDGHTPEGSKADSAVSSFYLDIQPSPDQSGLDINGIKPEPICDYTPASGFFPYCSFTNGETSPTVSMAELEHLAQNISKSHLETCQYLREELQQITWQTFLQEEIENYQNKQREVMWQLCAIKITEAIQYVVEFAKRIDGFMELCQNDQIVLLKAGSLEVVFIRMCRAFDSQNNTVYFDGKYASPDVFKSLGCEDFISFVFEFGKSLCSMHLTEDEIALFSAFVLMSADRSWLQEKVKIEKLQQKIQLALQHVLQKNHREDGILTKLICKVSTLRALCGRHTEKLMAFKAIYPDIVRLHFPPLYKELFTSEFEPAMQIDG
Test: EMSA

B1: HRE probe (dsDNA)
DNA 1: GATCTCGACAGTGACCCTTTTAACCAGGTCAGTGAG
DNA 2: CTCACTGACCTGGTTAAAAGGGTCACTGTCGAGATC
binding result: no binding

B2: RORE probe (dsDNA)
DNA 1: GATCTCGACTCGTATATCAAGGTCATGCTG
DNA 2: CAGCATGACCTTGATATACGAGTCGAGATC
binding result: no binding
